From PMC2647517 (Biochemistry, 2008)
Read-outs that look alike come from different tables or passages of the source.

How the values were obtained:
[1] = molecular target: the molecule itself; assay: SEC
[2] = molecular target: the molecule itself; assay: SEC + cross-linking
[3] = molecular target: the molecule itself; assay: SEC + cross-linking; remark: listed apart in the source
[4] = molecular target: the molecule itself; assay: cross-linking
[5] = molecular target: the molecule itself
[6] = molecular target: the molecule itself; assay: SEC; remark: listed apart in the source

B1: Escherichia coli manganese superoxide dismutase, wild type (apoprotein) (enzyme, UniProt P00448 1-206, looked up)
chain: MSYTLPSLPYAYDALEPHFDKQTMEIHHTKHHQTYVNNANAALESLPEFANLPVEELITKLDQLPADKKTVLRNNAGGHANHSLFWKGLKKGTTLQGDLKAAIERDFGSVDNFKAEFEKAAASRFGSGWAWLVLKGDKLAVVSTANQDSPLMGEAISGASGFPIMGLDVWEHAYYLKFQNRRPDYIKEFWNVVNWDEAAARFAAKK
- stoichiometry N [1]: 2

B2: EC MnSOD S126C, disulfide form (enzyme, Escherichia coli, UniProt P00448 1-206, looked up)
chain: MSYTLPSLPYAYDALEPHFDKQTMEIHHTKHHQTYVNNANAALESLPEFANLPVEELITKLDQLPADKKTVLRNNAGGHANHSLFWKGLKKGTTLQGDLKAAIERDFGSVDNFKAEFEKAAASRFGCGWAWLVLKGDKLAVVSTANQDSPLMGEAISGASGFPIMGLDVWEHAYYLKFQNRRPDYIKEFWNVVNWDEAAARFAAKK
modifications: disulfide between Cys126 of the two subunits
- stoichiometry N [2]: 2
- stoichiometry N [3]: 2

B3: EC MnSOD Y174C, disulfide form (enzyme, Escherichia coli, UniProt P00448 1-206, looked up)
chain: MSYTLPSLPYAYDALEPHFDKQTMEIHHTKHHQTYVNNANAALESLPEFANLPVEELITKLDQLPADKKTVLRNNAGGHANHSLFWKGLKKGTTLQGDLKAAIERDFGSVDNFKAEFEKAAASRFGSGWAWLVLKGDKLAVVSTANQDSPLMGEAISGASGFPIMGLDVWEHAYCLKFQNRRPDYIKEFWNVVNWDEAAARFAAKK
modifications: disulfide between Cys174 of the two subunits
- stoichiometry N [4]: 2

B4: EC MnSOD H171A (enzyme, Escherichia coli, UniProt P00448 1-206, looked up)
chain: MSYTLPSLPYAYDALEPHFDKQTMEIHHTKHHQTYVNNANAALESLPEFANLPVEELITKLDQLPADKKTVLRNNAGGHANHSLFWKGLKKGTTLQGDLKAAIERDFGSVDNFKAEFEKAAASRFGSGWAWLVLKGDKLAVVSTANQDSPLMGEAISGASGFPIMGLDVWEAAYYLKFQNRRPDYIKEFWNVVNWDEAAARFAAKK
- stoichiometry N [5]: 2

B5: EC MnSOD S126C, free thiol form (enzyme, Escherichia coli, UniProt P00448 1-206, looked up)
chain: MSYTLPSLPYAYDALEPHFDKQTMEIHHTKHHQTYVNNANAALESLPEFANLPVEELITKLDQLPADKKTVLRNNAGGHANHSLFWKGLKKGTTLQGDLKAAIERDFGSVDNFKAEFEKAAASRFGCGWAWLVLKGDKLAVVSTANQDSPLMGEAISGASGFPIMGLDVWEHAYYLKFQNRRPDYIKEFWNVVNWDEAAARFAAKK
modifications: Cys126 as free thiol (0.99 mol SH/mol protein)
- stoichiometry N [6]: 2

B6: EC MnSOD (S126C/Y174C), double disulfide form (enzyme, Escherichia coli, UniProt P00448 1-206, looked up)
chain: MSYTLPSLPYAYDALEPHFDKQTMEIHHTKHHQTYVNNANAALESLPEFANLPVEELITKLDQLPADKKTVLRNNAGGHANHSLFWKGLKKGTTLQGDLKAAIERDFGSVDNFKAEFEKAAASRFGCGWAWLVLKGDKLAVVSTANQDSPLMGEAISGASGFPIMGLDVWEHAYCLKFQNRRPDYIKEFWNVVNWDEAAARFAAKK
modifications: disulfides between Cys126 and Cys126 and between Cys174 and Cys174 of the two subunits
- stoichiometry N [4]: 2

B7: EC MnSOD E170C, disulfide form (enzyme, Escherichia coli, UniProt P00448 1-206, looked up)
chain: MSYTLPSLPYAYDALEPHFDKQTMEIHHTKHHQTYVNNANAALESLPEFANLPVEELITKLDQLPADKKTVLRNNAGGHANHSLFWKGLKKGTTLQGDLKAAIERDFGSVDNFKAEFEKAAASRFGSGWAWLVLKGDKLAVVSTANQDSPLMGEAISGASGFPIMGLDVWCHAYYLKFQNRRPDYIKEFWNVVNWDEAAARFAAKK
modifications: disulfide between Cys170 of the two subunits
- stoichiometry N [4]: 2
